Experimental data: article PMC3000613 (Biochemistry, 2010)

Legend:
[1] = biological target: GST-Obsc_(6316–6345) (rat); assay: SPR
[2] = biological target: T1, GST-Obsc_(6231–6260) (rat); assay: SPR
T1 chain: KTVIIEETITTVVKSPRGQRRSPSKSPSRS

B1: MBP-sAnk1_(29–155) (domain or fragment)
chain: VKGSLCFVLKHIHQELDKELGESEGLSDDEETISTRVVRRRVFLKGDELQNIPGEQVTEEQFTDEQGNIVTKKIIRKVVRQVDSSGAIDTQQHEEVELRGSGLQPDLIEGRKGAQIVKRASLKRGKQ
Kd [1]: 133 nM | koff [1]: 0.000792 s⁻¹ | kon [1]: 6290 M⁻¹ s⁻¹ | Kd [2]: 384 ± 53 nM
